The values that follow come from publication PMC5098445 (mAbs, 2016).

This assay has as its target human insulin-like growth factor 1 receptor (Homo sapiens, UniProt P08069). The assay can be described thus: SPR. (In general: In SPR one partner is held on a chip, and binding of the other changes the refractive index at the surface.)

Numbering of substitutions follows the chain as printed.

human insulin-like growth factor 1 receptor, sequence (P08069 31-1367): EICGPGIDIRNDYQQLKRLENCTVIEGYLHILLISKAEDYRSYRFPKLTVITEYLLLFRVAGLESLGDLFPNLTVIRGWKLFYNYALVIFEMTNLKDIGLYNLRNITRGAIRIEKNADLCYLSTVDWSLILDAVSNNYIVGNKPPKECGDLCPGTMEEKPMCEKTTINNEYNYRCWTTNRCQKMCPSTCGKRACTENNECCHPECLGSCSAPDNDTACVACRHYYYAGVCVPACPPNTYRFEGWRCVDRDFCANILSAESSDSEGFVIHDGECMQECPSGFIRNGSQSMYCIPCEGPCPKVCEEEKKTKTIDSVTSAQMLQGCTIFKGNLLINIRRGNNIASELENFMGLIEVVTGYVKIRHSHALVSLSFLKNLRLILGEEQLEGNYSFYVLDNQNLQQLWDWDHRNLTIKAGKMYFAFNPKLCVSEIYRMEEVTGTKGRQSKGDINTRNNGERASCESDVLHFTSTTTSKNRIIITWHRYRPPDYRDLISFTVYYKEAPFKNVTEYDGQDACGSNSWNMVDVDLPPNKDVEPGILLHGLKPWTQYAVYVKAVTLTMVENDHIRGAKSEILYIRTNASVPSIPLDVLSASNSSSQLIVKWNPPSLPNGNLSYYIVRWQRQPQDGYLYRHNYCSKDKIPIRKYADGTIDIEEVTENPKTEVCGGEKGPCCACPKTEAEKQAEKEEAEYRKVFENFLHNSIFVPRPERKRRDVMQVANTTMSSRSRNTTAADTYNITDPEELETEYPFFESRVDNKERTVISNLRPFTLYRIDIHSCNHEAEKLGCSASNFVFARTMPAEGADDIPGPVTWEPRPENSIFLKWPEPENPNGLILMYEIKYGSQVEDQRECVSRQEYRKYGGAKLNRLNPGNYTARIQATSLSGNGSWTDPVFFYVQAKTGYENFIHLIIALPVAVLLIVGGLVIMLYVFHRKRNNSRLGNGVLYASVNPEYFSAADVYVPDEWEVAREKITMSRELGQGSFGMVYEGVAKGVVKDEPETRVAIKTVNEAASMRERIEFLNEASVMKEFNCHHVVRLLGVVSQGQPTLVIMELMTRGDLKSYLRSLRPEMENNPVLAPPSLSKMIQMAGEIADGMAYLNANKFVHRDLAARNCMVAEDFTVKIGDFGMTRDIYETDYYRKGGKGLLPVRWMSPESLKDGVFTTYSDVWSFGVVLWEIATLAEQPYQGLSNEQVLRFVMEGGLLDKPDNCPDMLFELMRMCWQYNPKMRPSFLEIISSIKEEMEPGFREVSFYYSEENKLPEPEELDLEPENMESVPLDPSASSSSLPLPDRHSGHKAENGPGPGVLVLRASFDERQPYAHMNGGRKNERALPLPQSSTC

B1: scFv of AK18 (IGF-1R-binding region) (scFv, V domains shown)
VH: QVELVESGGGVVQPGRSQRLSCAASGFTFSSYGMHWVRQAPGKGLEWVAIIWFDGSSTYYADSVRGRFTISRDNSKNTLYLQMNSLRAEDTAVYFCARELGRRYFDLWGRGTLVSVSS
VL: EIVLTQSPATLSLSPGERATLSCRASQSVSSYLAWYQQKPGQAPRLLIYDASKRATGIPARFSGSGSGTDFTLTISSLEPEDFAVYYCQQRSKWPPWTFGQGTKVESK
B1: the binding result is recorded as “binds”.

B2: scFv of F13B5 (IGF-1R-binding region) (scFv, V domains shown)
VH: B1 VH
VL: B1 VL with D50Q, W94Y
For B2, the binding result is given as “binds”.
